Results: patent US20240124590A1 (ULTRAHUMAN EIGHT, published 2024)
Positions count from the first letter of the chain named. Where two headings read alike, the source gives them in different places.

Tests used:
[1] = molecular target: T1, cyno PD1 expressed on CHO-K1 cells (cynomolgus monkey, UniProt Q15116 25-288 (human entry)); assay: flow cytometry, PD1 CHO-K1 cells
T1 construct: also called cyno PD1+ CHO cells
T1 chain: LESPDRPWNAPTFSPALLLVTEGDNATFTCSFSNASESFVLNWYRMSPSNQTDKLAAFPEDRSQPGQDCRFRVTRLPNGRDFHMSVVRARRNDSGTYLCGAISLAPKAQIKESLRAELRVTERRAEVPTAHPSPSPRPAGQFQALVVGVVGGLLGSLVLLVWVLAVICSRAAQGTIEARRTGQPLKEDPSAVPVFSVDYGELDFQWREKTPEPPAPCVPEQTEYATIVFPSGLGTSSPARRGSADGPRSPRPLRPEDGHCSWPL
Protocol: Purified IgGs were tested in FACs for binding to human and cyno PD1 expressed on CHO-K1 stable cell lines and CHO-K1 wild-type cells. […] Binding of IgGs was detected with a mouse anti-human IgG conjugated to FITC. Results were analyzed by examining the Mean Fluorescence Intensity (MFI) of 10000 cells per sample in the BL-1 channel detector of a flow cytometer (Attune™ NxT Acoustic Focusing Cytometer, Invitrogen/ThermoFisher Scientific).
Antibodies to PD1 were analysed for concentration-dependent binding at the cell surface via flow cytometry. Initial analyses were performed on CHO cells stably-transfected with human or cyno PD1.

[2] = molecular target: T2, human PD1 human Fc tagged recombinant protein (human, UniProt Q15116 25-170, limits assumed); assay: direct ELISA, IgG1null on coated PD1-Fc
T2 construct: also called huPD1-Fc; huPD-1-Fc; not shown: human Fc tag
Protocol: (§1) Binding and cross-reactivity of the lead panel to the recombinant proteins was initially assessed by binding ELISA. The human PD1 human Fc tagged recombinant protein and the cynomolgus monkey PD1 human Fc tagged recombinant protein were coated to the surface of MaxiSorp™ flat-bottom 96 well plate at 1 μg/ml. […] The Fabs were detected using mouse anti-c-myc antibody followed by donkey anti-mouse IgG conjugated to horseradish peroxidase. The IgGs were detected using the mouse anti-human IgG conjugated to horseradish peroxidase. Binding signals were visualized with 3,3′,5,5′-Tetrannethylbenzidine Substrate Solution (TMB) and the absorbance measured at 450 nm.
(§2) The purified IgGs described above were then tested for binding to human and cyno PD1-Fc in direct titration ELISA format. […] As the ELISA EC50 values for directly binding IgGs are strongly influenced by avidity, rather than true 1:1 binding affinity, we then proceeded to perform higher-sensitivity, solution-phase epitope competition and Biacore binding affinity determinations, as outlined below.

[3] = molecular target: T3, cynomolgus monkey PD1 human Fc tagged recombinant protein (cynomolgus monkey, UniProt Q15116 25-170 (human entry), limits assumed); assay: direct ELISA, IgG1null on coated PD1-Fc
T3 construct: also called cyPD1-Fc; cyPD-1-Fc; not shown: human Fc tag
T3 chain: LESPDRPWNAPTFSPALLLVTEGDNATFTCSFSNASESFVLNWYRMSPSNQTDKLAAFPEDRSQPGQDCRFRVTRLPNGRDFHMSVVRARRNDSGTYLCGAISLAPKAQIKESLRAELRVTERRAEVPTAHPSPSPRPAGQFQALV
Protocol: as §1, §2

[4] = molecular target: T4, human PD1 His tagged (monomeric) (human, UniProt Q15116 25-170, limits assumed); assay: SPR (Biacore), IgG captured, monomeric PD1-His analyte
T4 construct: Soluble monomeric analyte; whole entry named; also called monomeric human PD1; not shown: His tag
Protocol: (§3) Affinity (KD) of purified IgGs was determined via SPR with antigen in-solution on a Biacore 3000 (GE). A mouse anti-human antibody (CH1 specific) was immobilized on a CM5 Sensor Chip to a level of 2000 RU in acetate buffer at pH 4.5 using amine coupling following the Wizard instructions for two channels. One channel was used for background signal correction. The standard running buffer HBS-EP pH 7.4 was used. Regeneration was performed with a single injection of 10 μl of 10 mM Glycine at pH 1.5 at 20 μl/minute. IgG samples were injected for 2 minutes at 50 nM at 30 μl/min followed by and off-rate of 60 seconds. […] The obtained sensorgrams were analysed using the Biacore 3000 evaluation (BIAevaluation) software. The KD was calculated by simultaneous fitting of the association and dissociation phases to a 1:1 Langmuir binding model.
(§4) Biacore analyses of binding affinity was performed for all IgGs to solution-phase, monomeric human and cyno PD1 proteins.

[5] = molecular target: T5, cynomolgus monkey PD1 His tag (monomeric) (cynomolgus monkey, UniProt Q15116 25-170 (human entry), limits assumed); assay: as above
T5 construct: Soluble monomeric analyte; whole entry named; also called monomeric cyno PD1; not shown: His tag
T5 chain: T3 chain
Protocol: as §3, §4

[6] = molecular target: T2, human PD1 human Fc tagged recombinant …; assay: direct ELISA, IgG1null on coated PD1-Fc; remark: listed apart in the source
Protocol: as §1, §2

[7] = molecular target: T3, cynomolgus monkey PD1 human Fc tagged …; assay: direct ELISA, IgG1null on coated PD1-Fc
Protocol: as §1, §2

T2 sequence (Q15116 25-170 limits assumed): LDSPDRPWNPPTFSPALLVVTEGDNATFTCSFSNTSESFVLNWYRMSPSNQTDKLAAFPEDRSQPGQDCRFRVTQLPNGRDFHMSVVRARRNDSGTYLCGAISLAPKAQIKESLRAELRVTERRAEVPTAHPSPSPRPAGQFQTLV
T4 sequence (Q15116 25-170 limits assumed): as above

B1: IgG1-08 (antibody, V domains shown)
VH: EVQLVESGGGLVQPGGSLRLSCAASGFTFSSYLMSWVRQAPGKGLEWVATISGGGSEKYYVDSVKGRFTISRDNAKNSLYLQMNSLRAEDTAVYYCARQLYGFDYWGQGTLVTVSS
VL: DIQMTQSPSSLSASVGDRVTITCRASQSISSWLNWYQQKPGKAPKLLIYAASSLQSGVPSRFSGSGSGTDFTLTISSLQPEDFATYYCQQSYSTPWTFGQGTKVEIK
notes: Designer; human IgG1null + Ckappa; also called Antibody IgG1-08; MAB08
**Q.** B1 was tested. Which EC50 [1] did it give?
**A.** 2.03 nM

**Q.** What about the EC50 [2] of the same binder?
**A.** 0.134 nM

**Q.** And the EC50 [3]?
**A.** 0.0771 nM

**Q.** What about the Kd [4] of the same binder?
**A.** 1.47 nM

**Q.** And the koff [4]?
**A.** 0.00028 s⁻¹

**Q.** What about the kon [4] of the same binder?
**A.** 190000 M⁻¹ s⁻¹

**Q.** What about the Kd [5] of the same binder?
**A.** 3.4 nM

**Q.** What about the koff [5] of the same binder?
**A.** 0.00052 s⁻¹

**Q.** And the kon [5]?
**A.** 150000 M⁻¹ s⁻¹

B2: IgG1-05 (antibody, V domains shown)
VH: B1 VH with L100V, G102Y
VL: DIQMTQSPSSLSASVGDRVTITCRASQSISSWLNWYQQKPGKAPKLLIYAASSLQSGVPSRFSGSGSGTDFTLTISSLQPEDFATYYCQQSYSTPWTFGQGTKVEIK
notes: Designer; human IgG1null + Ckappa; also called Antibody IgG1-05
**Q.** For B2, which EC50 [1] is on record?
**A.** 2.52 nM

**Q.** And the EC50 [2]?
**A.** 0.121 nM

**Q.** What about the EC50 [3] of the same binder?
**A.** 0.135 nM

**Q.** And the Kd [4]?
**A.** 1.91 nM

**Q.** And the koff [4]?
**A.** 0.00029 s⁻¹

**Q.** And the kon [4]?
**A.** 150000 M⁻¹ s⁻¹

**Q.** What about the Kd [5] of the same binder?
**A.** 2.8 nM

**Q.** And the koff [5]?
**A.** 0.00033 s⁻¹

**Q.** What about the kon [5] of the same binder?
**A.** 120000 M⁻¹ s⁻¹

B3: IgG1-06D02 (antibody, V domains shown)
VH: B1 VH with K58T
VL: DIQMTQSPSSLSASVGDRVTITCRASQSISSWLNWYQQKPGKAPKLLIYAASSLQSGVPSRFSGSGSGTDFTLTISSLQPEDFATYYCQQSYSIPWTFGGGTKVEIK
notes: Library-derived; human IgG1null + Ckappa; also called Clone 06D02
**Q.** How did the EC50 [1] turn out when B3 was run?
**A.** 1.56 nM

**Q.** What about the EC50 [6] of the same binder?
**A.** 0.065 nM

**Q.** What about the EC50 [7] of the same binder?
**A.** 0.104 nM

**Q.** And the Kd [4]?
**A.** 1.3 nM

**Q.** And the koff [4]?
**A.** 0.00025 s⁻¹

**Q.** And the kon [4]?
**A.** 200000 M⁻¹ s⁻¹

**Q.** And the Kd [5]?
**A.** 4.9 nM

**Q.** And the koff [5]?
**A.** 0.00062 s⁻¹

**Q.** And the kon [5]?
**A.** 130000 M⁻¹ s⁻¹
